Biological target: PFV integrase wt (INPFV) (prototype foamy virus, UniProt P14350 752-1143)
Assay: fluorescence anisotropy; 1 mM Mg2+; stoichiometric IN + DNA; 20 mM Tris pH 7.2, 50 mM NaCl, 1 mM DTT, 10% DMSO, 1 mM (or 10 mM) Mg2+, 25 °C
Details: protein: recombinant, tags: His-tag, chain copies: 4

Binder | binding result (label: fluorescein, blunt) | further results
Fl-DNA#9 (dsDNA) DNA 1: GGAATCTAGCGGCGCATAGGT DNA 2: ACCTATGCGCCGCTAGATTCC | binds | –
Fl-DNA#13 (processed LTR end) (dsDNA) DNA 1: TATACAAAATTCCATGACA DNA 2: ATTGTCATGGAATTTTGTATA | – | binding result (label: fluorescein, 5' overhang 2 nt on non-transferred strand): binds
Fl-DNA#8 (dsDNA) DNA 1: GGAATCTAGCGGCGCATCAAT DNA 2: ATTGATGCGCCGCTAGATTCC | binds | –
Fl-PFVCAAT (Fl-DNA#1) (dsDNA) DNA 1: TATACAAAATTCCATGACAAT DNA 2: ATTGTCATGGAATTTTGTATA | – | binding result (label: 5'-fluorescein on reactive strand, blunt): binds

— paper PMC5656594, “Probing Resistance Mutations in Retroviral Integrases by Direct Measurement of Dolutegravir Fluorescence”
